Experimental data as given in patent US5849890.

Molecular target: human chorionic gonadotropin (hCG) heterodimer (Homo sapiens) (UniProt P01215+P0DN86)
Experiment: filter
Details: 2'-F all pyrimidines (RNA transcript of template)

Chain of human chorionic gonadotropin (hCG) heterodimer (Homo sapiens) (P01215 25-116, chain 1 of 2, other chains not shown): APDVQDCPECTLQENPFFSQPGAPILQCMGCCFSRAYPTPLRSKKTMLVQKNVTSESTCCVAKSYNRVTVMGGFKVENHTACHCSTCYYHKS

## GGGAGGACGAUGCGGNNNNNNNNNNNNNUUGAACGAUCCUUNNNNNNNNNNNNNCAGACGACUCGCCCGA [CG2N7 unselected pool]
Up to 40 uM hCG
  binding: < 1 % bound

## GGGAGACAAGAAUAAACGCUCAANNNNNNNNNNNNNNNNNNNNNNNNNNNNNNNNNNNNNNNNUUCGACAGGAGGCUCACAACAGGC [2'-F random 40N8 pool]
estimate, <1% bound at up to 80 uM
  Kd: > 800 µM
